From patent US20230136228A1

How the values were obtained:
[1] = target: human CEACAM1 (human) (UniProt P13688); experiment: flow cytometry, MFI on transfected PEAK cells divided by MFI on WT PEAK cells
[2] = target: human CEACAM3 (human) (UniProt P40198); experiment: as above
[3] = target: human CEACAM4 (human) (UniProt O75871); experiment: as above
[4] = target: human CEACAM5 (carcinoembryonic antigen, CEA), cell surface (human) (UniProt P06731); experiment: as above
[5] = target: human CEACAM6 (human) (UniProt P40199); experiment: as above
Sequence of human CEACAM6 (human) (P40199 35-320): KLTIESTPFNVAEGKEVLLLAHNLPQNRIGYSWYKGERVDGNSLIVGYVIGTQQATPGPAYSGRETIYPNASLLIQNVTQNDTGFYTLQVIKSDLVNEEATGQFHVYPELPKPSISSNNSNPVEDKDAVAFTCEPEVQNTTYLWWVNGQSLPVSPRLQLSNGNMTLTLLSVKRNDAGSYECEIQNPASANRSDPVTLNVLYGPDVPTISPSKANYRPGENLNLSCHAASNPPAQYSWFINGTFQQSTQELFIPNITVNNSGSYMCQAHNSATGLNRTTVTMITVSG

[6] = target: human CEACAM8 (human) (UniProt P31997); experiment: as above
Sequence of human CEACAM8 (human) (P31997 35-320): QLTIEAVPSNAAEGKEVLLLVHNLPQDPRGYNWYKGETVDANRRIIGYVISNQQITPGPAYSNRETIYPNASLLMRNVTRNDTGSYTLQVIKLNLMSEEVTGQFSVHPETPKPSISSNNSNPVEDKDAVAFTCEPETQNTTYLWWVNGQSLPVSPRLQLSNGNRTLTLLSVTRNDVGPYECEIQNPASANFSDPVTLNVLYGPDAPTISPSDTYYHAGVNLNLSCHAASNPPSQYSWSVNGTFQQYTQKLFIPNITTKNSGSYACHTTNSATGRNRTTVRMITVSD

[7] = target: human CEACAM1 (human) (UniProt P13688); experiment: flow cytometry, transfected PEAK cells, equimolar to 10 mcg/ml full-size antibody
[8] = target: human CEACAM3 (human) (UniProt P40198); experiment: as above
[9] = target: human CEACAM4 (human) (UniProt O75871); experiment: as above
[10] = target: human CEACAM5 (carcinoembryonic antigen, CEA), cell surface (human) (UniProt P06731); experiment: as above
[11] = target: human CEACAM6 (human) (UniProt P40199); experiment: as above
[12] = target: human CEACAM8 (human) (UniProt P31997); experiment: as above

Sequence of human CEACAM5 (carcinoembryonic antigen, CEA), cell surface (human) (P06731 35-685 limits assumed): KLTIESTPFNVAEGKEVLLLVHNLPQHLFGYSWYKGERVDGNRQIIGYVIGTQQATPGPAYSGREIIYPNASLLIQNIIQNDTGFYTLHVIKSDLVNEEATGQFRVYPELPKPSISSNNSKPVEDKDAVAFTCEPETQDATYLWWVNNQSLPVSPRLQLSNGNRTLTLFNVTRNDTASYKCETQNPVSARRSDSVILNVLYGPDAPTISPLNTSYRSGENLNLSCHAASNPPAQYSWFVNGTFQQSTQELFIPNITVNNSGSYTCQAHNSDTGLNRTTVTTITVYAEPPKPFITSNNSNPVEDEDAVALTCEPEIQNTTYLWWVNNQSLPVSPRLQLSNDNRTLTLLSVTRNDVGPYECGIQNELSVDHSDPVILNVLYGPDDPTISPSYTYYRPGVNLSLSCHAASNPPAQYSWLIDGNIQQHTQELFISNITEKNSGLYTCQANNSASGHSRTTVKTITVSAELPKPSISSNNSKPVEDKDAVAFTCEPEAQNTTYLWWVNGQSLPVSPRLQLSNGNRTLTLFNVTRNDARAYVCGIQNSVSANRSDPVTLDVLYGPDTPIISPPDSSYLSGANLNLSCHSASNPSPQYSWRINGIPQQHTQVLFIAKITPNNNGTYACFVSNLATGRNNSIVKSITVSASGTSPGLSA
Sequence of human CEACAM3 (human) (P40198 35-252): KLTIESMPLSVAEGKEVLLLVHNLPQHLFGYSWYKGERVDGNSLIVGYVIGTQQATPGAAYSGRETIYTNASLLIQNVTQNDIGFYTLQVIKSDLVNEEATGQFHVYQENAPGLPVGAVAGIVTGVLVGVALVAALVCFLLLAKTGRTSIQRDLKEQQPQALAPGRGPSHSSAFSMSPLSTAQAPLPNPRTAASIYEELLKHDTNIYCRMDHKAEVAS
Sequence of human CEACAM1 (human) (P13688 35-526): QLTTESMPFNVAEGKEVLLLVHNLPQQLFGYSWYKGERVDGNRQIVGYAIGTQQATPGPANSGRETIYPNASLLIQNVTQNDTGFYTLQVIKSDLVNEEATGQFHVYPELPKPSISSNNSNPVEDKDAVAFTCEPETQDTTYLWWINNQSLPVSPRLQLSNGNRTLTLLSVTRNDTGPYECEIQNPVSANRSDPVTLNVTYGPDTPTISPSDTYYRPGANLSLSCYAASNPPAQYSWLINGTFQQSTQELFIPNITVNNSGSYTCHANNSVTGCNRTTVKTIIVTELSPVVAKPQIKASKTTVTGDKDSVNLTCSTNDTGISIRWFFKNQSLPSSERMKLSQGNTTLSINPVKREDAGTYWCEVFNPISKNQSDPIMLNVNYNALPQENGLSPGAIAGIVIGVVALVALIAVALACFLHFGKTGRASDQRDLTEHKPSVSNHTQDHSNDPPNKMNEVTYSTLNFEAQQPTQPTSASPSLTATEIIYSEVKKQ
Sequence of human CEACAM4 (human) (O75871 36-244): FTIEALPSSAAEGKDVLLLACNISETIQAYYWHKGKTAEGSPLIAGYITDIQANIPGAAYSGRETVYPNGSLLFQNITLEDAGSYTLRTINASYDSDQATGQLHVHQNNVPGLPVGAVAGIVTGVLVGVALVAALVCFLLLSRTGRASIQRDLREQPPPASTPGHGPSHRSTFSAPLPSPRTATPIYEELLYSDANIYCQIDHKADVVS

Question: Which Factor to PEAK WT [1] does the source give for MEDI-565 BiTE (bispecific antibody) here?
Answer: Its Factor to PEAK WT is 1.2 fold.

Question: And the Factor to PEAK WT [2]?
Answer: Its Factor to PEAK WT is 0.8 fold.

Question: What about the Factor to PEAK WT [3] of the same substance?
Answer: Its Factor to PEAK WT is 1.1 fold.

Question: What about the Factor to PEAK WT [4] of the same substance?
Answer: The Factor to PEAK WT was 15.7 fold.

Question: And the Factor to PEAK WT [5]?
Answer: Its Factor to PEAK WT is 1.6 fold.

Question: And the Factor to PEAK WT [6]?
Answer: Its Factor to PEAK WT is 20.4 fold.

Question: What about the MFI [7] of the same substance?
Answer: The MFI was 1470 MFI.

Question: What about the MFI [8] of the same substance?
Answer: Its MFI is 943 MFI.

Question: What about the MFI [9] of the same substance?
Answer: The MFI was 1340 MFI.

Question: And the MFI [10]?
Answer: Its MFI is 18400 MFI.

Question: And the MFI [11]?
Answer: The MFI was 1830 MFI.

Question: And the MFI [12]?
Answer: Its MFI is 24000 MFI.
